Data on three molecules can be found in paper PMC11093223 (2024).

The target of assay [1] is TBC1D23 C-terminal domain K672A (mouse, UniProt Q8K0F1 559-677, K672A). Kind of assay: ITC. (In general: ITC needs no label: the signal is the heat of the interaction.)
Assay [2] concerns the target TBC1D23 C-terminal domain (mouse, UniProt Q8K0F1 559-684). Description: ITC.

Chain of TBC1D23 C-terminal domain (Q8K0F1 559-684): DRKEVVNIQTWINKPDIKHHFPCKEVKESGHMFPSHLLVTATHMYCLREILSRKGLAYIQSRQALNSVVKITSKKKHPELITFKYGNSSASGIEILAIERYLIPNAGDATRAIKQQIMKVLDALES
Chain of TBC1D23 C-terminal domain K672A (Q8K0F1 559-677 K672A): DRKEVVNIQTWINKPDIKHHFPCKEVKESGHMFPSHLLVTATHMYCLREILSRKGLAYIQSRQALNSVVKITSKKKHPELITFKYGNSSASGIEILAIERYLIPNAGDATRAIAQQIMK

B1: syntaxin-16 (209–221) peptide (peptide)
peptide: DDNTLYHRGFTED
B1: binding in assay [1] was put at a Kd of 27.5 µM.

B2: STX16 R216A (peptide)
chain: DDNTLYHAGFTED
As for B2, the Kd (commonly the equilibrium constant for the complex coming apart) in assay [2] is 10.3 µM.

B3: STX16 DD209-210AA (peptide)
chain: AANTLYHRGFTED
In turn, B3 gave a Kd in assay [2] greater than 200 µM.
